Tests used:
[1] = target: ErNaR, NDQ rhodopsin (light-driven sodium pump) from Erythrobacter sp. HL-111 (Erythrobacter sp. HL-111); assay: SEC
[2] = target: ErNaR, NDQ rhodopsin (light-driven sodium pump) from Erythrobacter sp. HL-111 (Erythrobacter sp. HL-111); assay: SEC; remark: listed apart in the source
[3] = target: ErNaR, NDQ rhodopsin (light-driven sodium pump) from Erythrobacter sp. HL-111 (Erythrobacter sp. HL-111); assay: cryo-EM structure
[4] = target: ErNaR, NDQ rhodopsin (light-driven sodium pump) from Erythrobacter sp. HL-111 (Erythrobacter sp. HL-111); assay: cryo-EM structure; remark: listed apart in the source

Measured: stoichiometry N

ErNaR, NDQ rhodopsin (light-driven sodium pump) from Erythrobacter sp. HL-111 (natural protein)
5: all assays above

Reference: publication doi:10.1101/2023.10.11.561842
